This is an account of results in US20170360893A1 (Merck Sharp & Dohme, published 2017).

*1 amine or outer side, *2 acyl side, *3 side chain or, on linkers, in order; H or OH if unused. Where no end group is shown, it is not given here. Side-chain parts run from the residue outwards. [ ]: non-standard residue; d: D form. The star is where a group is joined. γGlu = O=C(O)[C@H](CCC(=O)[*:2])N[*:1]; Palmitoyl = CCCCCCCCCCCCCCCC(=O)*; Nle = CCCC[C@H](N)C(=O)O; Ac4c = NC1(C(=O)O)CCC1; Aib = CC(C)(N)C(=O)O

The target in one assay is human glucagon receptor (human, UniProt P47871 26-477). As to the kind of experiment: cell-based or functional assay.
human glucagon receptor, sequence (P47871 26-477): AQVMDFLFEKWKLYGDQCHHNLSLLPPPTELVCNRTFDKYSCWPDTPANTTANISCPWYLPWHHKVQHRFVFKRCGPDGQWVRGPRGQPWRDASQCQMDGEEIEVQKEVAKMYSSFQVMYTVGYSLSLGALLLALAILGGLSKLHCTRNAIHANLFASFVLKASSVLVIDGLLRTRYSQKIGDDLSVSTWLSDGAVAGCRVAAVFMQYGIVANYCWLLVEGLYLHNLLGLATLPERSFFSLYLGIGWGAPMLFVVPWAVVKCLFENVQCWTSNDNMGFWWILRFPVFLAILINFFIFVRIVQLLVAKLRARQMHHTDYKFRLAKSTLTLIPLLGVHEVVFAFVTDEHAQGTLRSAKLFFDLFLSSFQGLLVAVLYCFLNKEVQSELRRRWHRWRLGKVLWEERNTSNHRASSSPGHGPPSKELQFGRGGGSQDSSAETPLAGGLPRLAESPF
Assay [1] deals with human glucagon-like peptide 1 receptor (human, UniProt P43220 24-463). The assay can be described thus: cell-based or functional assay.

B1: Co-agonist Peptide 3 (peptide)
peptide: H[dS]QGTFTSDK([γGlu-γGlu-Palmitoyl])SKYLDVRAAQDFVQWLLDT-NH2
modifications: N-terminus assumed
SMILES: CCCCCCCCCCCCCCCC(=O)N[C@@H](CCC(=O)N[C@@H](CCC(=O)NCCCC[C@H](NC(=O)[C@H](CC(=O)O)NC(=O)[C@H](CO)NC(=O)[C@@H](NC(=O)[C@H](Cc1ccccc1)NC(=O)[C@@H](NC(=O)CNC(=O)[C@H](CCC(N)=O)NC(=O)[C@@H](CO)NC(=O)[C@@H](N)Cc1c[nH]cn1)[C@@H](C)O)[C@@H](C)O)C(=O)N[C@@H](CO)C(=O)N[C@@H](CCCCN)C(=O)N[C@@H](Cc1ccc(O)cc1)C(=O)N[C@@H](CC(C)C)C(=O)N[C@@H](CC(=O)O)C(=O)N[C@H](C(=O)N[C@@H](CCCNC(=N)N)C(=O)N[C@@H](C)C(=O)N[C@@H](C)C(=O)N[C@@H](CCC(N)=O)C(=O)N[C@@H](CC(=O)O)C(=O)N[C@@H](Cc1ccccc1)C(=O)N[C@H](C(=O)N[C@@H](CCC(N)=O)C(=O)N[C@@H](Cc1c[nH]c2ccccc12)C(=O)N[C@@H](CC(C)C)C(=O)N[C@@H](CC(C)C)C(=O)N[C@@H](CC(=O)O)C(=O)N[C@H](C(N)=O)[C@@H](C)O)C(C)C)C(C)C)C(=O)O)C(=O)O
In the case of B1, the “GCGR EC50 (nM) human; cAMP production (HitHunter cAMP XS) in cells expressing human GCGR, 20% human serum” value (from here on “GCGR EC50 (nM) human … 20% human serum”) with human glucagon receptor was found to be 0.08 nM. For the same molecule, the “GLPR1 EC50 (nM) human; cAMP production (HitHunter cAMP XS) in cells expressing human GLP-1R, 20% human serum” value (“GLPR1 EC50 (nM) human … 20% human serum” for short) in assay [1] is 0.13 nM.

B2: Co-agonist Peptide 14 (peptide)
peptide: HXQGTXTSDKSKYLDERAAQDFVQWLLDT
modifications: not fully specified; X2 = D-Ser; X6 = threo-β-Phenylserine (tβP); K10 conjugated to γEγEC16; C-terminal amide
As for B2, the “GCGR EC50 (nM) human … 20% human serum” value with human glucagon receptor was found to be 1.04 nM. The “GLPR1 EC50 (nM) human … 20% human serum” value in assay [1] was 1.02 nM.
Turning to H[Aib]VGTFTSDK([γGlu-γGlu-Palmitoyl])SKYLD[Aib]RAAQDFVQWL[Nle]DT-NH2 [Co-agonist Peptide 4], the “GCGR EC50 (nM) human … 20% human serum” value in the assay with human glucagon receptor was determined as 0.89 nM. In assay [1], the “GLPR1 EC50 (nM) human … 20% human serum” value stood at 0.1 nM.
Regarding H[dS]QGTFTSDK([γGlu-γGlu-Palmitoyl])SKYLDVRRAQDFVQWLLDT-NH2 (not fully specified; printed as HsQGTFTSDK(γEγEC16)SKYLDVRRAQDFVQWLLDT-NH2) [Co-agonist Peptide 2], in the assay with human glucagon receptor, the “GCGR EC50 (nM) human … 20% human serum” value was 0.041 nM. In addition, the “GLPR1 EC50 (nM) human … 20% human serum” value in assay [1] stood at 0.16 nM.

B3: Co-agonist Peptide 13 (peptide)
peptide: H[Ac4c]QGTFTSDK([γGlu-γGlu-Palmitoyl])SKYLDERAAQDFVQWLLDT-NH2
modifications: N-terminus assumed
SMILES: CCCCCCCCCCCCCCCC(=O)N[C@@H](CCC(=O)N[C@@H](CCC(=O)NCCCC[C@H](NC(=O)[C@H](CC(=O)O)NC(=O)[C@H](CO)NC(=O)[C@@H](NC(=O)[C@H](Cc1ccccc1)NC(=O)[C@@H](NC(=O)CNC(=O)[C@H](CCC(N)=O)NC(=O)C1(NC(=O)[C@@H](N)Cc2c[nH]cn2)CCC1)[C@@H](C)O)[C@@H](C)O)C(=O)N[C@@H](CO)C(=O)N[C@@H](CCCCN)C(=O)N[C@@H](Cc1ccc(O)cc1)C(=O)N[C@@H](CC(C)C)C(=O)N[C@@H](CC(=O)O)C(=O)N[C@@H](CCC(=O)O)C(=O)N[C@@H](CCCNC(=N)N)C(=O)N[C@@H](C)C(=O)N[C@@H](C)C(=O)N[C@@H](CCC(N)=O)C(=O)N[C@@H](CC(=O)O)C(=O)N[C@@H](Cc1ccccc1)C(=O)N[C@H](C(=O)N[C@@H](CCC(N)=O)C(=O)N[C@@H](Cc1c[nH]c2ccccc12)C(=O)N[C@@H](CC(C)C)C(=O)N[C@@H](CC(C)C)C(=O)N[C@@H](CC(=O)O)C(=O)N[C@H](C(N)=O)[C@@H](C)O)C(C)C)C(=O)O)C(=O)O
With B3, the “GCGR EC50 (nM) human … 20% human serum” value with human glucagon receptor was determined as 0.06 nM. Also, in assay [1], the “GLPR1 EC50 (nM) human … 20% human serum” value amounted to 0.05 nM.
